± gives the uncertainty stated by the source.

B1: GAS2-like protein 1, residues 209 to 276; numbered along this chain, Q99501 (parent)
chain: DELVREILGRCTCPDQFPMIKVSEGKYRVGDSSLLIFVRVLRSHVMVRVGGGWDTLEHYLDKHDPCRC

Variants of B1 are the subject of the series. The series is described as follows: abundance fitness (aPCA) (normalised: wild type 0, dead -1); higher = more abundant; growth selection in yeast, the domain comes from the species named. Particulars: Homo sapiens.
Take DELVREILGRCTCPDQCPMIKVSEGKYRVGDSSLLIFVRVLRSHVMVRVGGGWDTLEHYLDKHDPCRC: the abundance fitness was -1 ± 0.23.

Turning to DELVREILGRCTCPDQAPMIKVSEGKYRVGDSSLLIFVRVLRSHVMVRVGGGWDTLEHYLDKHDPCRC, the abundance fitness was -0.955 ± 0.15.

For DELVREILGRCTCPDQGPMIKVSEGKYRVGDSSLLIFVRVLRSHVMVRVGGGWDTLEHYLDKHDPCRC, the abundance fitness is -0.743 ± 0.08.

As to DELVREILGRCTCPDQKPMIKVSEGKYRVGDSSLLIFVRVLRSHVMVRVGGGWDTLEHYLDKHDPCRC, the abundance fitness is -0.831 ± 0.13.

Turning to DELVREILGRCTCPDQSPMIKVSEGKYRVGDSSLLIFVRVLRSHVMVRVGGGWDTLEHYLDKHDPCRC, the abundance fitness was -0.925 ± 0.12.

Regarding DELVREILGRCTCPDQWPMIKVSEGKYRVGDSSLLIFVRVLRSHVMVRVGGGWDTLEHYLDKHDPCRC, the abundance fitness was -0.741 ± 0.096.

As to DELVREILGRCTCPDQIPMIKVSEGKYRVGDSSLLIFVRVLRSHVMVRVGGGWDTLEHYLDKHDPCRC, the abundance fitness was -0.846 ± 0.19.

As for DELVREILGRCTCPDQVPMIKVSEGKYRVGDSSLLIFVRVLRSHVMVRVGGGWDTLEHYLDKHDPCRC, the abundance fitness was -0.768 ± 0.082.

Consider DELVREILGRCTCPDQTPMIKVSEGKYRVGDSSLLIFVRVLRSHVMVRVGGGWDTLEHYLDKHDPCRC, for which the abundance fitness is -0.858 ± 0.11.

As to DELVREILGRCTCPDQQPMIKVSEGKYRVGDSSLLIFVRVLRSHVMVRVGGGWDTLEHYLDKHDPCRC, the abundance fitness was -0.88 ± 0.18.

Regarding DELVREILGRCTCPDQFNMIKVSEGKYRVGDSSLLIFVRVLRSHVMVRVGGGWDTLEHYLDKHDPCRC, the abundance fitness is -0.15 ± 0.079.

For the variant DELVREILGRCTCPDQFYMIKVSEGKYRVGDSSLLIFVRVLRSHVMVRVGGGWDTLEHYLDKHDPCRC, the abundance fitness is -0.669 ± 0.14.

With DELVREILGRCTCPDQFDMIKVSEGKYRVGDSSLLIFVRVLRSHVMVRVGGGWDTLEHYLDKHDPCRC, the abundance fitness was -0.207 ± 0.064.

Take DELVREILGRCTCPDQFCMIKVSEGKYRVGDSSLLIFVRVLRSHVMVRVGGGWDTLEHYLDKHDPCRC: the abundance fitness was -0.512 ± 0.082.

Take DELVREILGRCTCPDQFLMIKVSEGKYRVGDSSLLIFVRVLRSHVMVRVGGGWDTLEHYLDKHDPCRC: the abundance fitness is -0.471 ± 0.054.

As to DELVREILGRCTCPDQFQMIKVSEGKYRVGDSSLLIFVRVLRSHVMVRVGGGWDTLEHYLDKHDPCRC, the abundance fitness is 0.011 ± 0.072.

Regarding DELVREILGRCTCPDQFWMIKVSEGKYRVGDSSLLIFVRVLRSHVMVRVGGGWDTLEHYLDKHDPCRC, the abundance fitness was -0.809 ± 0.12.

In the case of DELVREILGRCTCPDQFEMIKVSEGKYRVGDSSLLIFVRVLRSHVMVRVGGGWDTLEHYLDKHDPCRC, the abundance fitness is -0.132 ± 0.066.

Turning to DELVREILGRCTCPDQFFMIKVSEGKYRVGDSSLLIFVRVLRSHVMVRVGGGWDTLEHYLDKHDPCRC, the abundance fitness is -0.645 ± 0.16.

With DELVREILGRCTCPDQFRMIKVSEGKYRVGDSSLLIFVRVLRSHVMVRVGGGWDTLEHYLDKHDPCRC, the abundance fitness was -0.012 ± 0.033.

Take DELVREILGRCTCPDQFSMIKVSEGKYRVGDSSLLIFVRVLRSHVMVRVGGGWDTLEHYLDKHDPCRC: the abundance fitness was -0.043 ± 0.045.

DELVREILGRCTCPDQFIMIKVSEGKYRVGDSSLLIFVRVLRSHVMVRVGGGWDTLEHYLDKHDPCRC: the abundance fitness is -0.524 ± 0.1.

For the variant DELVREILGRCTCPDQFGMIKVSEGKYRVGDSSLLIFVRVLRSHVMVRVGGGWDTLEHYLDKHDPCRC, the abundance fitness was -0.475 ± 0.058.

For DELVREILGRCTCPDQFKMIKVSEGKYRVGDSSLLIFVRVLRSHVMVRVGGGWDTLEHYLDKHDPCRC, the abundance fitness was 0.026 ± 0.063.

As to DELVREILGRCTCPDQFHMIKVSEGKYRVGDSSLLIFVRVLRSHVMVRVGGGWDTLEHYLDKHDPCRC, the abundance fitness is -0.222 ± 0.09.

Turning to DELVREILGRCTCPDQFMMIKVSEGKYRVGDSSLLIFVRVLRSHVMVRVGGGWDTLEHYLDKHDPCRC, the abundance fitness was -0.501 ± 0.085.

For the variant DELVREILGRCTCPDIFPMIKVSEGKYRVGDSSLLIFVRVLRSHVMVRVGGGWDTLEHYLDKHDPCRC, the abundance fitness was -0.351 ± 0.077.

On to DELVREILGRCTCPDPFPMIKVSEGKYRVGDSSLLIFVRVLRSHVMVRVGGGWDTLEHYLDKHDPCRC, for which the abundance fitness stood at 0.131 ± 0.047.

With DELVREILGRCTCPDNFPMIKVSEGKYRVGDSSLLIFVRVLRSHVMVRVGGGWDTLEHYLDKHDPCRC, the abundance fitness was -0.634 ± 0.12.

Take DELVREILGRCTCPDMFPMIKVSEGKYRVGDSSLLIFVRVLRSHVMVRVGGGWDTLEHYLDKHDPCRC: the abundance fitness is -0.276 ± 0.048.

Consider DELVREILGRCTCPDTFPMIKVSEGKYRVGDSSLLIFVRVLRSHVMVRVGGGWDTLEHYLDKHDPCRC, for which the abundance fitness is -0.11 ± 0.044.

On to DELVREILGRCTCPDFFPMIKVSEGKYRVGDSSLLIFVRVLRSHVMVRVGGGWDTLEHYLDKHDPCRC, for which the abundance fitness is -0.623 ± 0.16.

Take DELVREILGRCTCPDHFPMIKVSEGKYRVGDSSLLIFVRVLRSHVMVRVGGGWDTLEHYLDKHDPCRC: the abundance fitness was -0.486 ± 0.095.

On to DELVREILGRCTCPDAFPMIKVSEGKYRVGDSSLLIFVRVLRSHVMVRVGGGWDTLEHYLDKHDPCRC, for which the abundance fitness was -0.224 ± 0.053.

In the case of DELVREILGRCTCPDSFPMIKVSEGKYRVGDSSLLIFVRVLRSHVMVRVGGGWDTLEHYLDKHDPCRC, the abundance fitness is -0.172 ± 0.041.

Take DELVREILGRCTCPDKFPMIKVSEGKYRVGDSSLLIFVRVLRSHVMVRVGGGWDTLEHYLDKHDPCRC: the abundance fitness stood at 0.113 ± 0.047.

Consider DELVREILGRCTCPDYFPMIKVSEGKYRVGDSSLLIFVRVLRSHVMVRVGGGWDTLEHYLDKHDPCRC, for which the abundance fitness was -0.848 ± 0.11.

DELVREILGRCTCPDGFPMIKVSEGKYRVGDSSLLIFVRVLRSHVMVRVGGGWDTLEHYLDKHDPCRC: the abundance fitness was -0.131 ± 0.046.

DELVREILGRCTCPDEFPMIKVSEGKYRVGDSSLLIFVRVLRSHVMVRVGGGWDTLEHYLDKHDPCRC: the abundance fitness was -0.42 ± 0.12.

Take DELVREILGRCTCPDVFPMIKVSEGKYRVGDSSLLIFVRVLRSHVMVRVGGGWDTLEHYLDKHDPCRC: the abundance fitness is -0.269 ± 0.043.

These data come from the Human Domainome abundance scans (Beltran et al. 2025).
